In PMC2063392, “Antigenic determinants of prostate-specific antigen (PSA) and development of assays specific for different forms of PSA” (British Journal of Cancer, 1997):

Target: T1, human alpha2-macroglobulin (a2M) (human, UniProt P01023 24-1474)
T1 construct: human alpha2-macroglobulin bought from Biodesign; source: bought: Biodesign, MD, USA
T1 sequence (looked up): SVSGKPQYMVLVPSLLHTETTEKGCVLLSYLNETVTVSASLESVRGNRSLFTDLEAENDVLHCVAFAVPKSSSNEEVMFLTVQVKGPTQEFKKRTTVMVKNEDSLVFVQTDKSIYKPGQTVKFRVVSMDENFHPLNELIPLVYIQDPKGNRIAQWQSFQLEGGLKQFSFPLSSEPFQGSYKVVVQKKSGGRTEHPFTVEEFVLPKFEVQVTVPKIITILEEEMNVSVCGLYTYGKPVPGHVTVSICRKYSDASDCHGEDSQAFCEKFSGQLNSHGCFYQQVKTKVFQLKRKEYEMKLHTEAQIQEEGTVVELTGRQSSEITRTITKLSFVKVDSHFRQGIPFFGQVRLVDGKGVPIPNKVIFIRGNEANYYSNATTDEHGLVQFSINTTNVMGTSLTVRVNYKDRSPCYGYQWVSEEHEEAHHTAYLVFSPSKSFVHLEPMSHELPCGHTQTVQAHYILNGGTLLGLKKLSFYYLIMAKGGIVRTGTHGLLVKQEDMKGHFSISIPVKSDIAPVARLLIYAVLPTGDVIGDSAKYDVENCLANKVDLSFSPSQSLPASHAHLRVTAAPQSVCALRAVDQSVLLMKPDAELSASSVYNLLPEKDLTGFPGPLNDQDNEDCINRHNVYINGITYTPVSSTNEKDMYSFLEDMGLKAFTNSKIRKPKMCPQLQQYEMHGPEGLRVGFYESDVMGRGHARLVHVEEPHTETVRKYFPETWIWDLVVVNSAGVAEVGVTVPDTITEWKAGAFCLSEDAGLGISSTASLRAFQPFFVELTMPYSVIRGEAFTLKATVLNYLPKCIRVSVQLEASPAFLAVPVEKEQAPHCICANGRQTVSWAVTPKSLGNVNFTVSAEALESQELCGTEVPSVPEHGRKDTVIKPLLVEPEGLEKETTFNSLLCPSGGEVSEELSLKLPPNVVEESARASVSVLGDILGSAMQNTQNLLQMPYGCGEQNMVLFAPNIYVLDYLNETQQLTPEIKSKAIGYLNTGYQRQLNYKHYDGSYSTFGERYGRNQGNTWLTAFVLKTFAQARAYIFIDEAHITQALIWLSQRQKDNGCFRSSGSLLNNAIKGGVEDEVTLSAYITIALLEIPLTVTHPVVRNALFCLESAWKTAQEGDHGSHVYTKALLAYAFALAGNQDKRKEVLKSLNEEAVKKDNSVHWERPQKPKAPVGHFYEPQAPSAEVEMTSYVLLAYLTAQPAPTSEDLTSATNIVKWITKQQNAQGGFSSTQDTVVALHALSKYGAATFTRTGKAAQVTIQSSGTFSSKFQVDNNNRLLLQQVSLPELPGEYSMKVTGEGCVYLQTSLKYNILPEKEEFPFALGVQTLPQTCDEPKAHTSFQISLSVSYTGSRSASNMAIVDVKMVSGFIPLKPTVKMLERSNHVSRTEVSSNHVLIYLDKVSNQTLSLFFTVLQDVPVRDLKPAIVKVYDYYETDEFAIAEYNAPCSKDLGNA
Experiment: loss of PSA immunoreactivity after incubation; human a2M incubated with twofold molar excess of PSA for 4 h at 37 C, used without further purification; PSA concentration determined before and after incubation
Details: both partners purified

B1: prostate-specific antigen (PSA) (enzyme)
chain: not shown
notes: human prostate-specific antigen (PSA), 32 to 33-kDa single-chain glycoprotein from seminal plasma; the preparation also holds 'nicked' (internally cleaved) forms; also called F-PSA; free PSA; source: purified from pooled seminal plasma from healthy volunteers (ion-exchange chromatography and gel chromatography); also used unpurified in seminal plasma
B1: binds.
